According to article PMC6032152, “Ca2+/Calmodulin-Dependent AtSR1/CAMTA3 Plays Critical Roles in Balancing Plant Growth and Immunity”:

Biological target: T1, AtSR1 (CAMTA3) CG-1 domain (Arabidopsis thaliana, UniProt Q8GSA7 1-153)
T1 sequence: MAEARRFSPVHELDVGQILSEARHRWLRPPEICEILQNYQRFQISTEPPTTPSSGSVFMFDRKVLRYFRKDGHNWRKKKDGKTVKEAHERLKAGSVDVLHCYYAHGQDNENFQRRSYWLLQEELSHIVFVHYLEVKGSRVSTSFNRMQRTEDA
Assay: EMSA; EMSA; buffer, salt, pH and temperature not given in the material
Conditions: protein: recombinant; tags: 6His (pET32a-derived plasmid)

Binder | binding result
PDF1.4 promoter fragment (dsDNA) DNA 1: CGTGAAAGTCACGCGCCAAGAACAAA DNA 2: TTTGTTCTTGGCGCGTGACTTTCACG | binds
NPR1 promoter fragment (dsDNA) DNA 1: AAAGTAAAAAACGCGGAAAGCAATAA DNA 2: TTATTGCTTTCCGCGTTTTTTACTTT | binds
IAA1-2 promoter fragment (dsDNA) DNA 1: AAGAAAGAAGCCGCGTCCAAAATCTT DNA 2: AAGATTTTGGACGCGGCTTCTTTCTT | binds
IAA19 promoter fragment (dsDNA) DNA 1: AAAAAGCACGACGCGGTGCCATTACT DNA 2: AGTAATGGCACCGCGTCGTGCTTTTT | binds
SAUR41 promoter fragment (dsDNA) DNA 1: AACGAAGGGCCCGCGCTGTACTCGAT DNA 2: ATCGAGTACAGCGCGGGCCCTTCGTT | no binding
DWF4 promoter fragment (dsDNA) DNA 1: ATAAGCCTATACGCGCTCAAAGTATG DNA 2: CATACTTTGAGCGCGTATAGGCTTAT | binds
At5g41750-1 promoter fragment (dsDNA) DNA 1: TCTTTAGTCGTCGCGAATTCTTTGGG DNA 2: CCCAAAGAATTCGCGACGACTAAAGA | no binding
At5g41750-2 promoter fragment (dsDNA) DNA 1: TCATTGGTCCTCGCGACTATAACAAA DNA 2: TTTGTTATAGTCGCGAGGACCAATGA | binds
ADR1 promoter fragment (dsDNA) DNA 1: ATTAATCAAAACGCGTAAAAAGAGTA DNA 2: TACTCTTTTTACGCGTTTTGATTAAT | binds
